The target of series [1] is HPV68 L1 (0–505 aa), wild-type L1-only virus-like particle (human papillomavirus type 68). The series can be described thus: cryo-EM structure; VLPs (~2.0 mg/mL) vitrified on Quantifoil grids; icosahedral 3D reconstruction (AUTO3DEM or cisTEM).
Series [2] deals with the molecule itself. The description is as above.

By stoichiometry N is commonly meant the number of molecules, sites or subunits per partner or assembly. In turn, “HPV68 L1 (0–505 aa), wild-type L1-only virus-like particle (natural protein)” came in with a stoichiometry N in series [1] of 72 pentamers.

B1: HPV70 L1 (10–506 aa), wild-type L1-only virus-like particle (domain or fragment, human papillomavirus type 70, UniProt P50793 10-504, looked up)
chain: TVYLPPPSVAKVVNTDDYVTRTGIYYYAGSSRLLTVGHPYFKVPVNGGRKQEIPKVSAYQYRVFRVSLPDPNKFGLPDPSLYNPDTQRLVWACIGVEIGRGQPLGVGVSGHPLYNRLDDTENSHFSSAVSTQDSRDNVSVDYKQTQLCIIGCVPAMGEHWAKGKACKSTQQGDCPPLELVNTAIEDGDMIDTGYGAMDFRTLQETKSEVPLDICQSVCKYPDYLQMSADVYGDSMFFCLRKEQLFARHFWNRGGMVGDTIPSELYIKGTDIRERPGTHVYSPSPSGSMVSSDSQLFNKPYWLHKAQGHNNGICWHNQLFITVVDTTRSTNFTLSACTETAIPAVYSPTKFKEYTRHVEEYDLQFIFQLCTITLTADVMAYIHTMNPAILDNWNIGVTPPPSASLVDTYRYLQSAAIACQKDAPTPEKKDPYDDLKFWNVDLKEKFSTELDQFPLGRKFLLQVGARRRPTIGPRKRPASAKSSSSASKHKRKRVSK
notes: Major capsid protein L1 of human papillomavirus type 70, residues 10-506 as printed; chosen from full-length and 5-, 10-, 15-aa N-terminal truncations; Non-fusion expression, no tag; Copies: 72 pentamers (T = 7 capsid) as printed, i.e. 360 chains; also called WT HPV70; HPV70 VLP; source: E. coli ER2566 (pTO-T7), purified (SP or XS sepharose; self-assembly on removal of DTT, Superdex 200); copies: …
As for B1, in series [2], the “stoichiometry N” value was determined as 72 pentamers.

B2: HPV39 L1 (15–505 aa), wild-type L1-only virus-like particle (domain or fragment)
chain: PPSVAKVVNTDDYVTRTGIYYYAGSSRLLTVGHPYFKVGMNGGRKQDIPKVSAYQYRVFRVTLPDPNKFSIPDASLYNPETQRLVWACVGVEVGRGQPLGVGISGHPLYNRQDDTENSPFSSTTNKDSRDNVSVDYKQTQLCIIGCVPAIGEHWGKGKACKPNNVSTGDCPPLELVNTPIEDGDMIDTGYGAMDFGALQETKSEVPLDICQSICKYPDYLQMSADVYGDSMFFCLRREQLFARHFWNRGGMVGDAIPAQLYIKGTDIRANPGSSVYCPSPSGSMVTSDSQLFNKPYWLHKAQGHNNGICWHNQLFLTVVDTTRSTNFTLSTSIESSIPSTYDPSKFKEYTRHVEEYDLQFIFQLCTVTLTTDVMSYIHTMNSSILDNWNFAVAPPPSASLVDTYRYLQSAAITCQKDAPAPEKKDPYDGLKFWNVDLREKFSLELDQFPLGRKFLLQARVRRRPTIGPRKRPAASTSSSSATKHKRKRVSK
notes: Major capsid protein L1 of human papillomavirus type 39, residues 15-505 as printed; chosen from full-length and 5-, 10-, 15-aa N-terminal truncations; Non-fusion expression, no tag; Copies: 72 pentamers (T = 7 capsid) as printed, i.e. 360 chains; also called WT HPV39; HPV39 VLP; source: E. coli ER2566 (pTO-T7), purified (SP or XS sepharose; self-assembly on removal of DTT, Superdex 200); copies: …
Turning to B2, in series [2], the “stoichiometry N” value is 72 pentamers.

For the origin of these results see PMC9622684, “Characterization of an Escherichia coli-derived triple-type chimeric vaccine against human papillomavirus types 39, 68 and 70” (NPJ Vaccines, 2022).
